Results published in paper PMC6166713.

Assays:
GST-WASP(201–321) F244A = GST-WASP(201–321) F244A (UniProt P42768); assay: scintillation proximity assay (SPA); 5 nM GST-WASP variant immobilised on protein A SPA fluoromicrospheres via an anti-GST antibody; varying concentrations of [3H]GTP·Cdc42; direct binding isotherm; apparent Kd; low-salt buffer
GST-WASP(201–321) W252A = GST-WASP(201–321) W252A (UniProt P42768); assay: as above
GST-WASP(201–321) L270A = GST-WASP(201–321) L270A (UniProt P42768); assay: as above
[1] = target: GST-WASP(201–321) wild type (UniProt P42768); assay: as above
GST-WASP(201–321) G251A = GST-WASP(201–321) G251A (UniProt P42768); assay: as above
GST-WASP(201–321) L267A = GST-WASP(201–321) L267A (UniProt P42768); assay: as above
GST-WASP(201–321) S242A = GST-WASP(201–321) S242A (UniProt P42768); assay: as above
GST-WASP(201–321) H246A = GST-WASP(201–321) H246A (UniProt P42768); assay: as above
GST-WASP(201–321) F271A = GST-WASP(201–321) F271A (UniProt P42768); assay: as above
GST-WASP(201–321) H249A = GST-WASP(201–321) H249A (UniProt P42768); assay: as above
GST-WASP(201–254) = GST-WASP(201–254) (UniProt P42768); assay: as above
GST-WASP(201–321) V250A = GST-WASP(201–321) V250A (UniProt P42768); assay: as above
GST-WASP(201–321) I233A = GST-WASP(201–321) I233A (UniProt P42768); assay: as above
GST-WASP(201–321) P241A = GST-WASP(201–321) P241A (UniProt P42768); assay: as above
GST-WASP(201–321) K235A = GST-WASP(201–321) K235A (UniProt P42768); assay: as above
[2] = target: GST-WASP(201–321) K231A/K232A (UniProt P42768); assay: BLI; Octet Red; GST-WASP variants loaded on anti-GST sensors (10 μg/ml), dipped into a dilution range of Cdc42·GMPPNP; 50 mM Tris-HCl pH 7.5, 150 mM NaCl, 1 mM MgCl2, 0.02% Tween 20, 0.1% BSA, 0.05% sodium azide, 25 °C; GST-alone sensors subtracted
GST-WASP(201–321) K231A = GST-WASP(201–321) K231A (UniProt P42768); assay: as above
[3] = target: GST-WASP(201–321) K225A/K226A/R227A (UniProt P42768); assay: as above

Kd (GST-WASP(201–321) F244A): 64.9 nM | Kd (GST-WASP(201–321) W252A): 9.6 nM | Kd (GST-WASP(201–321) L270A): 1.7 nM | Kd [1]: 0.5 nM | Kd (GST-WASP(201–321) G251A): 5.2 nM | Kd (GST-WASP(201–321) L267A): 3.2 nM | Kd (GST-WASP(201–321) S242A): 6.4 nM | Kd (GST-WASP(201–321) H246A): 42.3 nM | Kd (GST-WASP(201–321) F271A): 5 nM | Kd (GST-WASP(201–321) H249A): 43.1 nM | Kd (GST-WASP(201–254)): 31.8 nM | Kd (GST-WASP(201–321) V250A): 10.1 nM | Kd (GST-WASP(201–321) I233A): 26.4 nM | Kd (GST-WASP(201–321) P241A): 38.3 nM | Kd (GST-WASP(201–321) K235A): 8 nM | Kd [2]: 178 nM | koff [2]: 0.0639 s⁻¹ | kon [2]: 368000 M⁻¹ s⁻¹ | Kd (GST-WASP(201–321) K231A): 89.6 nM | koff (GST-WASP(201–321) K231A): 0.0438 s⁻¹ | kon (GST-WASP(201–321) K231A): 509000 M⁻¹ s⁻¹ | Kd [3]: 79.2 nM | koff [3]: 0.042 s⁻¹ | kon [3]: 540000 M⁻¹ s⁻¹
Substance: Cdc42 Δ7 Q61L (from UniProt P60953 1-191) (natural protein)
